The text below walks through data of US20230002499A1, “METHODS OF CANCER TREATMENT WITH ANTI-OX40 ANTIBODY IN COMBINATION WITH CHEMOTHERAPEUTIC AGENTS” (BeiGene (Beijing) Co., Ltd., priority 2019, published 2023).

The subject of assay [1] is CT26WT cells, a murine colon carcinoma cell line. Description: CT26WT syngeneic mouse model, OX86 in combination with Oxaplatin/5-Fu. It is filed as in vivo. To be noted: OX86 0.08 mg/kg QW i.p.; Oxaplatin 1.5 mg/kg QW i.p.; 5-Fu 15 mg/kg once daily five days per week i.p. Here is the method: Female BALB/c mice were subcutaneously implanted with 1×10^5 CT26WT cells, a murine colon carcinoma cell line, in 150 μL PBS in the right flank. After inoculation, the mice were randomized into 4 groups with 20 animals in each group. Mice were treated with vehicle as a control.
OX86 is a rat anti-mouse OX40 antibody previously disclosed in WO2016/057667, which was further engineered with mouse IgG2a constant regions in order to reduce its immunogenicity and also keep its Fc-mediated functions in mouse studies. The VH and VL regions of OX86 are provided below. […] As monotherapy, OX86 was administered at 0.08 mg/kg once per week (QW) by intraperitoneal (i.p.) injection.
Oxaplatin/5-Fluorouracil (5-Fu) was administered as a single agent to the mice. The OX86 antibody in combination with Oxaplatin/5-Fu was administered as combination therapy. OX86 (0.08 mg/kg) was administered once per week by intraperitoneal (i.p.) injection. Oxaplatin (1.5 mg/kg) was also dosed once per week (QW) intraperitoneally, and 5-Fu was given at 15 mg/kg once daily for five consecutive days per week by i.p. injection. […] Tumor volume was determined twice weekly in two dimensions by using a caliper and was expressed in mm^3 using the formula: V=0.5(a×b^2) where a and b are the long and short diameters of the tumor, respectively. […] Tumor growth inhibition (TGI) is calculated using the following formula: […]

Assay [2] concerns the target T1, full-length human OX40 expressed on HuT78/OX40 cells (human, UniProt P43489 29-277).
T1 sequence: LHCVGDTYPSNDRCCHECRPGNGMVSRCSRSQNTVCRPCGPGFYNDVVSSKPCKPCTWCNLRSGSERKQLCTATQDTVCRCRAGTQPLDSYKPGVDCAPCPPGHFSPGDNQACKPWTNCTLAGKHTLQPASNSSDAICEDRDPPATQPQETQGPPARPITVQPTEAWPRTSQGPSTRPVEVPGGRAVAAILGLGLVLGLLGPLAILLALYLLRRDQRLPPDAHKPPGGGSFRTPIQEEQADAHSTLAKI
Description: flow cytometry on live HuT78/OX40 cells; top of fitted curve. Here is the method: To evaluate the binding activity of anti-OX40 antibodies to bind OX40 expressed on the surface of live cells, HuT78 cells were transfected with human OX40 as described in Example 1 to create an OX40 expressing line. Live HuT78/OX40 cells were seeded in 96-well plate and were incubated with a serial dilution of various anti-OX40 antibodies. Goat anti-Human IgG-FITC (Cat: A0556, Beyotime) was used as a secondary antibody to detect antibody binding to the cell surface. EC₅₀ values for dose-dependent binding to human OX40 were determined by fitting the dose-response data to the four-parameter logistic model with GraphPad Prism.
A general note: In flow cytometry, cells or beads pass a laser one at a time.

Changes are numbered by the printed parent chain.

B1: OX86: rat anti-mouse OX40 antibody disclosed in WO2016/057667, engineered with mouse IgG2a constant regions; VH SEQ ID NO: 32, VL SEQ ID NO: 33 (antibody, V domains shown)
VH: QVQLKESGPGLVQPSQTLSLTCTVSGFSLTGYNLHWVRQPPGKGLEWMGRMRYDGDTYYNSVLKSRLSISRDTSKNQVFLKMNSLQTDDTAIYYCTRDGRGDSFDYWGQGVMVTVSS
VL: DIVMTQGALPNPVPSGESASITCRSSQSLVYKDGQTYLNWFLQRPGQSPQLLTYWMSTRASGVSDRFSGSGSGTYFTLKISRVRAEDAGVYYCQQVREYPFTFGSGTKLEIK
modifications: mouse IgG2a constant regions
Regarding B1, in assay [1], the “Mean Tumor Volume on Day 11 (Mean ± SEM)” value is given as 969.2 ± 229.0 mm^3 and the “TGI (%) on Day 11” value was found to be 48%.

B2: 445-2 (antibody, human IgG1, V domains shown)
VH: QVQLVQSGAEVKKPGSSVKVSCKASGYKFTSYIIHWVRQAPGQGLEWMGYINPYNEGTRYAQKFQGRVTLTADKSTSTAYMELSSLRSEDTAVYYCARGYYGSSYAMDYWGQGTTVTVSS
VL: DIQMTQSPSSLSASVGDRVTITCSASQGISNYLNWYQQKPGKAIKLLIYDASTLYSGVPSRFSGSGSGTDFTLTISSLQPEDFATYYCQQYSKLPYTFGGGTKVEIK
Regarding B2, in assay [2], the “Top (MFI), Mean” value was found to be 620 MFI.

B3: 445-3 (antibody, human IgG1, V domains shown)
VH: B2 VH with A61N
VL: B2 VL with S24R, G41D, K42G
notes: Human IgG1 wild type format
Consider B3, for which the “Top (MFI), Mean” value in assay [2] amounted to 910 MFI.

B4: 445-1 (antibody, IgG1, V domains shown)
VH: B2 VH with E56D, A61N, A72S
VL: B2 VL with A51T, F71Y
notes: Full-length antibody with human wild-type IgG1 (IgG1wt) and kappa constant regions
As for B4, the “Top (MFI), Mean” value in assay [2] came to 525 MFI.

B5: 445-3 IgG4 (antibody, V domains shown)
VH: B2 VH with A61N
VL: B2 VL with S24R, G41D, K42G
Take B5: the “Top (MFI), Mean” value in assay [2] was 892 MFI.

B6: ch445 (antibody, V domains shown)
VH: EVQLQQSGPELVKPGASVKMSCKASGYKFTSYIIHWVKQKPGQGLEWIGYINPYNDGTRYNEKFKGKATLTSDKSSSTAYMEYSSLTSEDSAVYYCARGYYGSSYAMDYWGQGTSVTVSS
VL: DIQMTQTTSSLSASLGDRVTISCSASQGISNYLNWYQQKPDGTIKLLIYDTSTLYSGVPSRFSGSGSGTDYFLTISNLEPEDIATYYCQQYSKLPYTFGGGTKLEKK
B6: the “Top (MFI), Mean” value in assay [2] was 725 MFI.
